# In US20200399712A1, “COMPOSITIONS AND METHODS FOR THE DIAGNOSIS AND DETECTION OF TUMORS AND CANCER PROGNOSIS” (priority 2018, published 2020):
# “Also recorded” adds a separate entry of the source. Marks after values point to notes of the source that are not given here.
# What was measured:
# [1] = test system: HPV16 DNA; assay: CLIA test for HPV16, performance characteristics in plasma
# Description: (§1) These primer/probe sets were adapted for development of a CLIA test for HPV16 DNA detection in plasma and salivary rinses (Table 2). Test performance was improved, so that analytical sensitivity in salivary rinse spike in assays ranges from 2.5-5.0 DNA copies/mL with 100% specificity for the three primer/probe sets that are now part of the component assay, resulting in a five-fold improvement in analytic sensitivity that is in the range of sensitivity found in sequence based liquid biopsy methods (FIG. 23, Table 2). Additionally, the assays can be used quantitatively, with measuring ranges between 2.0 log10-7.0 log10 copies/mL.
# [2] = test system: HPV-16; assay: qPCR on 20 ng DNA from saliva samples of HPV-HNSCC patients; conditions: 28 HPV-HNSCC saliva samples
# Method: (§2) All samples were run in triplicates.
# The sensitivity of detection from saliva 20 ng DNA samples is 32.1% (9/28) in E6 primer-probe sets, 42.9% (12/28) in E7 primer-probe sets, 35.7% (10/28) in “Min-5” primer-probe sets, 46.4% (13/28) in “Max-10” primer-probe sets. The sensitivity of combination of “5” and “10” is 50% (14/28) and that of E6 and E7 is 42.9% (12/28). By the standard curve analysis, the copy numbers that detected by “Max-10” primer-probe sets were the highest in these 4 primer-probe sets. The slope of standard curve is −3.5 in “Min-5” primer-probe sets when delta Rn is plotted against cycle threshold (FIG. 5).
# [3] = test system: HPV-16 genome; assay: qPCR sensitivity against HPV-16 copy number (known-copy HPV-16 DNA among 10 ng normal human DNA)
# Description: as §2
# To seek the most promising primer-probe set in the viewpoint of sensitivity, Applicants evaluated the sensitivity analysis for these candidate primer-probe sets. […] Therefore, the sensitivity of E6 (FIG. 3A) and E7 (FIG. 3B) was also 30 copies. […] The candidate primer-probe sets were the “Min-4” (FIG. 3C), “Min-5” (FIG. 3D), “Min-6” (FIG. 3E), “Max-10” (FIG. 3F), “E6-11” (FIG. 3G), “E6-13” (FIG. 3H), respectively.
# In addition, Applicants performed sensitivity analysis to identify the most sensitive primer/probe set from among the candidate sets.
# To validate the function of primer/probe sets, Applicants calculated the slope of delta Rn against cycle threshold for HPV-16 copy number detection from defined HPV copy number DNA derived from CaSki cell line.
# [4] = test system: HPV16 DNA; assay: CLIA test for HPV16, performance characteristics in salivary rinse
# Description: as §1
# [5] = test system: HPV DNA; assay: CLIA HPV test pilot study on saliva rinse samples from HPV-positive HNSCC patients and non-cancer controls; design: species or system HPV16; HPV16 DNA measured by CLIA HPV test: unit not given here
# Method: As a final validation, Applicants a small pilot study was performed on a blinded set of saliva rinse samples from 28 patients with HPV-positive HNSCC and 15 salivary rinses from non-cancer controls. […] The sensitivity increased to 96% when all three sets were used (Table 3).
# [6] = test system: HPV-16; assay: qPCR sensitivity against HPV-HNSCC tumor samples diluted among 10 ng normal human DNA
# Method: Quantitative real-time polymerase chain reaction (qRT-PCR) was used to examine the threshold in each experiment. qRT-PCR was performed using Quant Studio 6 Flex Real-Time PCR System (Thermo Fisher Scientific). All samples were run in triplicates. HPV-16 viral amplicon copy number estimations were developed using the CaSki cell line. After amplification of the amplicon by PCR, DNA concentration was calculated by weight NanoDrop®, then converted to DNA copy number by calculation based on the molecular weight of the double stranded amplicon. […] In the other 32 HPV-HNSCC cohort, Applicants diluted the tumor sample to 990 pg, 198 pg, 99 pg, 39.6 pg, 7.9 pg, 3.2 pg, and 1.6 pg of amount tumor weight, (correspond to 150, 30, 15, 6, 1.2, 0.6, and 0.3 cells: assumption that 1 tumor cell have 6.6 pg DNA (=3*10^9 (human DNA genome bp)*2 (diploid)*1.67*10^(−24) g (weight/Dalton))) combined with 10 ng normal leukocyte human DNA and compare the threshold of each primer-probe sets.
# In this regard, Applicants investigated the other 32 HPV-HNSCC tumor samples. From the assumption that 1 cell tumor DNA contain 6.6 pg DNA, Applicants made the dilution series by DNA derived from normal lymphocyte as described and decide the threshold for each primer-probe set.
# Furthermore, to determine whether these designed primer/probe sets also have a high sensitivity in a separate cohort, Applicants performed PCR in a validation cohort of 32 additional primary tumor samples with validated presence of HPV-16. Applicants prepared serial of dilutions of tumor DNA in normal lymphocyte DNA from non-cancer individuals and determined the threshold for each primer/probe set and defined amplification thresholds expressed in number of tumor cells for each sample (Table 5).
# [7] = first template ('... HPV16', word is an image)
# [8] = second template (name is an image)
# [9] = among 10 ng normal DNA, triplicate qPCR
# [10] = samples tested 3 times, 10 ng DNA from healthy individual
# [11] = tumor DNA dilution, fraction of 32 samples
molecule,measurement,setting,value
"E7: previously designed (historical) HPV-16 E7 primers and Taqman probe, SEQ ID NO: 10-12; part of CLIA test (nucleic acid, Taqman probe, labels not given here, part of CLIA test) DNA 1: CCGGACAGAGCCCATTACAA DNA 2: CGAATGTCTACGTGTGTGCTTTG DNA 3: CGCACAACCGAAGCGTAGAGTCACACT","Accuracy - Plasma Blind Panel, Negative % Agreement",[1],90%
same,"Accuracy - Plasma Blind Panel, Positive % Agreement",[1],100%
same,"Accuracy - Plasma Blind Panel, Total % Agreement",[1],97%
same,Measuring Range - Plasma,[1]; first template ('... HPV16'),2.0-8.5 log10 log10 copies/mL
same,Limit of Detection - Plasma,[1]; [7],1.5 copies/mL
same,Limit of Detection - Plasma,[1]; [8],13 copies/mL
same,Measuring Range - Plasma,[1]; [8],2.0-5.0 log10 log10 copies/mL
same,sensitivity of detection from saliva 20 ng DNA samples,[2],42.9%
same,sensitivity (HPV-16 copies),"[3]; HPV-16 genome among normal 10 ng DNA samples, consistent triplicate reaction",30 copies
same,reaction under 10 copies of HPV-16 genome,[3]; [9],reacted inconsistently
same,reaction under 30 copies of HPV-16 genome,[3]; [9],reacted consistently triplicate; also recorded: reacted consistently in triplicates
same,number of reactions against 10 HPV-16 copies,[3]; [10],2 reactions
same,number of reactions under 30 HPV-16 copies,[3]; [10],3 reactions
same,Measuring Range - Salivary Rinse,[4]; first template ('... HPV16'),2.0-8.5 log10 log10 copies/mL
same,Limit of Detection - Salivary rinse,[4]; [7],3 copies/mL
same,Limit of Detection - Salivary rinse,[4]; [8],23 copies/mL
same,Measuring Range - Salivary Rinse,[4]; [8],2.0-6.5 log10 log10 copies/mL
same,sensitivity for the detection of HPV DNA in saliva rinse samples,[5]; 28 patients with HPV-positive HNSCC,82%
same,HPV16 DNA measured by CLIA HPV test,[5]; saliva sample from HPV-HNSCC patient # 1,328000
same,HPV16 DNA measured by CLIA HPV test,[5]; saliva sample from HPV-HNSCC patient # 2,50000
same,HPV16 DNA measured by CLIA HPV test,[5]; saliva sample from HPV-HNSCC patient # 3,48500
same,HPV16 DNA measured by CLIA HPV test,[5]; saliva sample from HPV-HNSCC patient # 4,46500
same,HPV16 DNA measured by CLIA HPV test,[5]; saliva sample from HPV-HNSCC patient # 5,14700
same,HPV16 DNA measured by CLIA HPV test,[5]; saliva sample from HPV-HNSCC patient # 6,7320
same,HPV16 DNA measured by CLIA HPV test,[5]; saliva sample from HPV-HNSCC patient # 7,4950
same,HPV16 DNA measured by CLIA HPV test,[5]; saliva sample from HPV-HNSCC patient # 8,1570
same,HPV16 DNA measured by CLIA HPV test,[5]; saliva sample from HPV-HNSCC patient # 9,1020
same,HPV16 DNA measured by CLIA HPV test,[5]; saliva sample from HPV-HNSCC patient # 10,981
same,HPV16 DNA measured by CLIA HPV test,[5]; saliva sample from HPV-HNSCC patient # 11,521
same,HPV16 DNA measured by CLIA HPV test,[5]; saliva sample from HPV-HNSCC patient # 12,155
same,HPV16 DNA measured by CLIA HPV test,[5]; saliva sample from HPV-HNSCC patient # 13,140
same,HPV16 DNA measured by CLIA HPV test,[5]; saliva sample from HPV-HNSCC patient # 14,82.7
same,HPV16 DNA measured by CLIA HPV test,[5]; saliva sample from HPV-HNSCC patient # 15,62.6
same,HPV16 DNA measured by CLIA HPV test,[5]; saliva sample from HPV-HNSCC patient # 16,41.2
same,HPV16 DNA measured by CLIA HPV test,[5]; saliva sample from HPV-HNSCC patient # 17,14.1
same,HPV16 DNA measured by CLIA HPV test,[5]; saliva sample from HPV-HNSCC patient # 18,9.69
same,HPV16 DNA measured by CLIA HPV test,[5]; saliva sample from HPV-HNSCC patient # 19,8.17
same,HPV16 DNA measured by CLIA HPV test,[5]; saliva sample from HPV-HNSCC patient # 20,6.5
same,HPV16 DNA measured by CLIA HPV test,[5]; saliva sample from HPV-HNSCC patient # 21,4.02
same,HPV16 DNA measured by CLIA HPV test,[5]; saliva sample from HPV-HNSCC patient # 22,2.52
same,HPV16 DNA measured by CLIA HPV test,[5]; saliva sample from HPV-HNSCC patient # 23,0.986
same,sensitivity under 100 cells,[6]; 32 HPV-HNSCC tumor samples,96.9%
same,sensitivity under single cells,"[6]; 32 HPV-HNSCC tumor samples, 6.6 pg DNA",9.4%
same,sensitivity under 10 cells,"[6]; 32 HPV-HNSCC tumor samples, 66 pg DNA",68.8%
same,Threshold of tumor cell numbers for HPV-16 detection,[6]; Sample # 1,60.0 tumor cells
same,Threshold of tumor cell numbers for HPV-16 detection,[6]; Sample # 2,30.0 tumor cells
same,Threshold of tumor cell numbers for HPV-16 detection,[6]; Sample # 3,30.0 tumor cells
same,Threshold of tumor cell numbers for HPV-16 detection,[6]; Sample # 4,150.0 tumor cells
same,Threshold of tumor cell numbers for HPV-16 detection,[6]; Sample # 5,6.0 tumor cells
same,Threshold of tumor cell numbers for HPV-16 detection,[6]; Sample # 6,6.0 tumor cells
same,Threshold of tumor cell numbers for HPV-16 detection,[6]; Sample # 7,30.0 tumor cells
same,Threshold of tumor cell numbers for HPV-16 detection,[6]; Sample # 8,15.0 tumor cells
same,Threshold of tumor cell numbers for HPV-16 detection,[6]; Sample # 9,30.0 tumor cells
same,Threshold of tumor cell numbers for HPV-16 detection,[6]; Sample # 10,6.0 tumor cells
same,Threshold of tumor cell numbers for HPV-16 detection,[6]; Sample # 11,6.0 tumor cells
same,Threshold of tumor cell numbers for HPV-16 detection,[6]; Sample # 12,30.0 tumor cells
same,Threshold of tumor cell numbers for HPV-16 detection,[6]; Sample # 13,6.0 tumor cells
same,Threshold of tumor cell numbers for HPV-16 detection,[6]; Sample # 14,6.0 tumor cells
same,Threshold of tumor cell numbers for HPV-16 detection,[6]; Sample # 15,6.0 tumor cells
same,Threshold of tumor cell numbers for HPV-16 detection,[6]; Sample # 16,6.0 tumor cells
same,Threshold of tumor cell numbers for HPV-16 detection,[6]; Sample # 17,1.2 tumor cells
same,Threshold of tumor cell numbers for HPV-16 detection,[6]; Sample # 18,6.0 tumor cells
same,Threshold of tumor cell numbers for HPV-16 detection,[6]; Sample # 19,1.2 tumor cells
same,Threshold of tumor cell numbers for HPV-16 detection,[6]; Sample # 20,1.2 tumor cells
same,Threshold of tumor cell numbers for HPV-16 detection,[6]; Sample # 21,1.2 tumor cells
same,Threshold of tumor cell numbers for HPV-16 detection,[6]; Sample # 22,1.2 tumor cells
same,Threshold of tumor cell numbers for HPV-16 detection,[6]; Sample # 23,1.2 tumor cells
same,Threshold of tumor cell numbers for HPV-16 detection,[6]; Sample # 24,1.2 tumor cells
same,Threshold of tumor cell numbers for HPV-16 detection,[6]; Sample # 25,0.3 tumor cells
same,Threshold of tumor cell numbers for HPV-16 detection,[6]; Sample # 26,0.3 tumor cells
same,Threshold of tumor cell numbers for HPV-16 detection,[6]; Sample # 27,1.0 tumor cells
same,Threshold of tumor cell numbers for HPV-16 detection,[6]; Sample # 28,1.0 tumor cells
same,Threshold of tumor cell numbers for HPV-16 detection,[6]; Sample # 29,3.0 tumor cells
same,Threshold of tumor cell numbers for HPV-16 detection,[6]; Sample # 30,15.0 tumor cells
same,Threshold of tumor cell numbers for HPV-16 detection,[6]; Sample # 31,0.6 tumor cells
same,Threshold of tumor cell numbers for HPV-16 detection,[6]; Sample # 32,15.0 tumor cells
same,"Sensitivity, 1 cell",[6]; [11],0.094
same,"Sensitivity, 3 cells",[6]; [11],0.375
same,"Sensitivity, 10 cells",[6]; [11],0.688
same,"Sensitivity, 30 cells",[6]; [11],0.938*
same,"Sensitivity, 100 cells",[6]; [11],0.969*
